From the supplement of paper PMC9732359
± gives the uncertainty stated by the source.

Assay: protein stability index of a GFP-peptide fusion (yeast GPS) (PSI 1-4); higher = more stable; sorted into four equal gates, so the index is relative within each strain
In short: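 The protein stability index of a peptide was calculated by multiplying its read frequency in each gate by that gate's number and adding the products. The peptides were tiled 17-residue stretches of yeast proteins, fused downstream of GFP on a Cherry-expressing plasmid and carried in yeast as a pooled library. Mid-log cultures in leucine-free medium were sorted into four equal gates by GFP/Cherry ratio, and each gate's plasmids were PCR-amplified and Illumina-sequenced.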

Sequence	protein stability index (doa10∆)	protein stability index (pdr5∆)	protein stability index (san1∆)	protein stability index (ubr1∆)
EPFNAGIKYHATPPLKR [SMC1]	3.05 ± 0.071	3.12 ± 0.071	2.79 ± 0.062	2.97 ± 0.045
APEQQVQQFAQLPVGFK [UBP6]	2.92 ± 0.08	2.99 ± 0.052	3.09 ± 0.059	2.99 ± 0.037
IDDNYIVVVIEIITSLS [SRB8]	2.6 ± 0.11	2.87 ± 0.081	2.16 ± 0.082	2.22 ± 0.086
NRYAYVLSSLMFANMKV [LRP1]	2.47 ± 0.064	2.25 ± 0.058	2.08 ± 0.068	3.01 ± 0.047
EEEVTDQLEDLREHFKN [QCR6]	3.14 ± 0.17	3.06 ± 0.083	3.26 ± 0.09	3.29 ± 0.14
QVEKLGKKMEARGQSIW [RPN9]	1.34 ± 0.15	1.14 ± 0.081	–	1.18 ± 0.22
VQLPILKIIYTGLCSFD [YJL039C/NUP192]	1.41 ± 0.055	1.76 ± 0.043	1.26 ± 0.12	1.76 ± 0.058
ELRRFESSINTHPHAAD [SKI6]	2.73 ± 0.081	3.08 ± 0.054	2.56 ± 0.064	2.87 ± 0.055
APMRLATAALEIILKLC [YJL039C/NUP192]	1.6 ± 0.064	2.06 ± 0.043	1.31 ± 0.087	2.4 ± 0.057
IYLLFQSSGKLKEYLDL [YDL116W/NUP84]	2.51 ± 0.051	2.44 ± 0.052	2.52 ± 0.048	2.6 ± 0.038
DVCKTRFNHLVTRLFFI [YML031W/NDC1]	1.79 ± 0.046	1.53 ± 0.039	1.52 ± 0.072	1.77 ± 0.034
LKLLAKSHVLLATPVQF [BRR2]	1.89 ± 0.068	1.4 ± 0.058	1.36 ± 0.11	1.44 ± 0.07
IEKMSTIVQLCKKKEMS [YIL149C/MLP2]	1.8 ± 0.059	1.78 ± 0.055	1.59 ± 0.099	1.76 ± 0.051
EVFQLRIFVKEILEKCA [GAL11]	2.29 ± 0.12	2.11 ± 0.12	2.19 ± 0.077	2.12 ± 0.19
VTGFAEVGPWGSARTRW [FAS2]	2.24 ± 0.079	3.03 ± 0.086	2.73 ± 0.093	2.06 ± 0.071
LSHYAKIRPWRTFRLNE [RPO31]	2.86 ± 0.058	2.4 ± 0.055	3.06 ± 0.073	2.5 ± 0.051
KTKTSLLPTIKRTICKK [RPR2]	3.27 ± 0.11	3.18 ± 0.13	2.49 ± 0.18	3.29 ± 0.13
GAASNRTKFVRSLVREI [RPL36A]	3.22 ± 0.27	2.59 ± 0.25	3.02 ± 0.13	3.25 ± 0.12
KKNDMNTSAKNKNGENK [SIR4]	2.59 ± 0.06	2.69 ± 0.061	3.03 ± 0.054	3.12 ± 0.066
AKILSQAPTELELQVAQ [RPS7A]	2.48 ± 0.048	2.75 ± 0.052	2.3 ± 0.053	2.5 ± 0.046
TSRVFAKIISKAPEQFI [YML103C/NUP188]	–	3.08 ± 0.14	–	–
LEEVSLKWIDTASKFGK [RPL3]	1.75 ± 0.097	1.91 ± 0.092	1.8 ± 0.12	1.95 ± 0.089
LKENEENEDGNIEERKE [BRR2]	–	3.56 ± 0.27	3.13 ± 0.098	–
TKVLQFAAKQRQELQMQ [SNF2]	2.3 ± 0.12	2.71 ± 0.076	2.51 ± 0.059	2.31 ± 0.083
VLRLRGALVDRTQPWSI [RPS0A]	2.65 ± 0.086	2.44 ± 0.072	2.52 ± 0.067	3.08 ± 0.031
RQNRNQEIFDANVQRLK [RPL13A]	3.15 ± 0.078	3.19 ± 0.085	3.19 ± 0.055	3.4 ± 0.055

Sequence	protein stability index (doa10∆)	protein stability index (pdr5∆)	protein stability index (san1∆)	protein stability index (ubr1∆)
FTRPLFVLLEIEPVTKV [YCS4]	1.94 ± 0.062	2.05 ± 0.07	1.95 ± 0.081	1.97 ± 0.069
TTESSDLKEGLQDLSRY [GRR1]	3.24 ± 0.12	3.33 ± 0.11	3.33 ± 0.052	3.55 ± 0.045
EDALYLGKRSILAAAHR [PRE2]	3.42 ± 0.062	3.33 ± 0.06	3.16 ± 0.067	3.31 ± 0.051
YNALFQQNIKFRRDFLL [YJL039C/NUP192]	2.38 ± 0.096	2.02 ± 0.063	2.4 ± 0.068	2.3 ± 0.055
QNNKPSFVFGQAAAKPS [YLR335W/NUP2]	1.77 ± 0.05	2.12 ± 0.066	2.2 ± 0.1	2.45 ± 0.075
VHGKAPMLMANNDVFTI [SSN3]	2.79 ± 0.068	2.47 ± 0.07	2.48 ± 0.095	2.72 ± 0.074
SDREMAALIASKVYYNL [RPN2]	1.91 ± 0.06	1.83 ± 0.056	1.5 ± 0.055	1.7 ± 0.045
EEAKEESDDDMGFGLFD [RPP1A]	3.09 ± 0.053	3.15 ± 0.061	3.22 ± 0.028	3.26 ± 0.045
GMNNASAGLFGSKPAGG [YGL172W/NUP49]	3.23 ± 0.086	3.32 ± 0.086	2.96 ± 0.09	3.23 ± 0.053
SLRSNVVVAETSPEKKD [YAR002W/NUP60]	2.23 ± 0.05	2.63 ± 0.063	2.21 ± 0.069	2.4 ± 0.061
ILSLIEEAAGTKMFEDR [SMC2]	3.27 ± 0.11	3.19 ± 0.09	3.19 ± 0.084	3.24 ± 0.066
PYMPYYYYYHPMNAPTP [DSN1]	2.52 ± 0.043	2.71 ± 0.043	2.64 ± 0.045	2.69 ± 0.032
IKEFVDDLKKDHIAIDW [DSN1]	2.56 ± 0.08	2.96 ± 0.075	2.73 ± 0.076	2.75 ± 0.059
HVKQCQETCDKLRARLV [SMC2]	2.2 ± 0.18	2.74 ± 0.14	2.34 ± 0.11	2.21 ± 0.06
SVFYTILRDYGPQEAAN [RPO31]	3.42 ± 0.11	3.25 ± 0.094	3.27 ± 0.071	2.88 ± 0.069
RSYDLTRHQNTIHAKRK [RPN4]	2.48 ± 0.061	2.48 ± 0.065	2.52 ± 0.071	2.53 ± 0.07
GYTQHGGLRPFGVSFIY [PRE9]	2.67 ± 0.22	2.03 ± 0.098	1.84 ± 0.1	1.65 ± 0.064
NDYLEKHSVTEYIFEAH [CDC53]	–	2.79 ± 0.12	3.12 ± 0.094	3.17 ± 0.1
NNANVLGGEINDNEDDD [BRR2]	3.3 ± 0.095	3.2 ± 0.082	3.3 ± 0.072	2.98 ± 0.061
YIYSHVNKVPQNVAGDK [SWP82]	2.79 ± 0.17	2.93 ± 0.079	2.96 ± 0.08	2.97 ± 0.071
KCIKYSEKLITKYFEPT [ECM29]	2.63 ± 0.12	3.03 ± 0.13	2.84 ± 0.05	2.68 ± 0.074
LIHPENFTCNRKILNFK [SWI1]	2.17 ± 0.069	2.49 ± 0.064	2.37 ± 0.064	2.88 ± 0.075
LYLKVIPMDFIRNVLVT [SSN2]	1.36 ± 0.094	1.11 ± 0.16	1.4 ± 0.23	1.29 ± 0.16
RIRKLTGQNFLTSNISS [REC8]	1.6 ± 0.056	1.79 ± 0.05	1.57 ± 0.093	1.53 ± 0.053
HGKRRSQVVETHKVTDI [YMR129W/POM152]	3.35 ± 0.13	3.01 ± 0.13	3.18 ± 0.064	3.2 ± 0.058
AGLDKGISINNMMEHWD [RPO31]	3.04 ± 0.13	3.09 ± 0.091	3.02 ± 0.086	3.14 ± 0.05
